The conditions of this data set: Pseudomonas aeruginosa (strain ATCC 15692 / DSM 22644 / CIP 104116 / JCM 14847 / LMG 12228 / 1C / PRS 101 / PAO1), 10 °C, GdnHCl, Fluorescence, reversible: yes (100%), whole UniProt chain shown.
[1] abbreviates: pH 4, phosphate/acetate 25 mM/25 mM/.
Where [2] appears, read: pH 4.7, phosphate/acetate 25 mM/25 mM/.

B1: Cytochrome c-551 wild type, P00099 (protein)
chain: MKPYALLSLLATGTLLAQGAWAEDPEVLFKNKGCVACHAIDTKMVGPAYKDVAAKFAGQAGAEAELAQRIKNGSQGVWGPIPMPPNAVSDDEAQTLAKWVLSQK
As for B1, the denaturant m value reads like this: (pH 3, citrate 15 mM) 3.3 kcal/mol/M; under setting [1], 2.8 kcal/mol/M; under setting [2], 3.1 kcal/mol/M; (pH 7, Sodium phosphate 50 mM) 3.3 kcal/mol/M. Moreover, the “denaturant midpoint (higher = more stable)” value is, setting by setting: (pH 3, citrate 15 mM) 1 M; under setting [1], 2.1 M; under setting [2], 2.1 M; (pH 7, Sodium phosphate 50 mM) 1.8 M. For the same protein, the unfolding free energy is, setting by setting: (pH 3, citrate 15 mM) 3.3 kcal/mol; under setting [1], 5.9 kcal/mol; under setting [2], 6.6 kcal/mol; (pH 7, Sodium phosphate 50 mM) 6 kcal/mol.

Values taken from FireProtDB (doi:10.1006/jmbi.1999.2852).
